Reference: patent US20150017171A1 (CHINA SYNTHETIC RUBBER, published 2015)

What was measured:
[1] = target: T1, recombinant human PLVAP51-442 protein (extracellular domain, His tag removed by thrombin) (human, UniProt Q9BX97 51-442); assay: ANTQ300 quartz crystal microbalance
T1 construct: also called recombinant PLVAP protein; recombinant PLVAP
T1 sequence: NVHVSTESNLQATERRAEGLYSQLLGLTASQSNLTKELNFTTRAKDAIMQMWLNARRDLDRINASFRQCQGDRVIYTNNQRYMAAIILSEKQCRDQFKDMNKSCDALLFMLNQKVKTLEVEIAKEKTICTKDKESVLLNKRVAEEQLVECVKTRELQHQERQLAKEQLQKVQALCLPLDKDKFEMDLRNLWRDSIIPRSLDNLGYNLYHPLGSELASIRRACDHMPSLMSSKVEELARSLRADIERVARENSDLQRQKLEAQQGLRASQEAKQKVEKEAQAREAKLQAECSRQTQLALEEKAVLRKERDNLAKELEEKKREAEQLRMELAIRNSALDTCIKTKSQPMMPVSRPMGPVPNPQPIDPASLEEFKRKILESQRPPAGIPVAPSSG

[2] = target: T1, recombinant human PLVAP51-442 protein …; assay: Biacore T-100
[3] = target: T2, His-tagged human PLVAP51-292 (human, UniProt Q9BX97 51-292); assay: immunoblot of total protein extract of E. coli expressing the His-tagged protein
T2 construct: also called N-terminal portion of the extracellular domain; not shown: His tag and vector residues of pET-15b
T2 sequence: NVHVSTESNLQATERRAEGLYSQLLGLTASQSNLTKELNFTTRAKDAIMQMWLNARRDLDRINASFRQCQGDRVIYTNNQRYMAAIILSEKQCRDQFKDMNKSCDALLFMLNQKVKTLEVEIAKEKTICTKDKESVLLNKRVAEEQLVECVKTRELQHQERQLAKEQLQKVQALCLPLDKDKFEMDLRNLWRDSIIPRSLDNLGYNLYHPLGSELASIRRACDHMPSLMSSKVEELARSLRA
From the text: (§1) Molecular weight protein standards are resolved in Lane M.

[4] = target: T3, His-tagged human CEACAM6 (human, UniProt P40199 35-320, limits assumed); assay: as above
T3 construct: also called human CEACAM6 protein unrelated to PLVAP (lane 4); not shown: His tag
T3 sequence (looked up): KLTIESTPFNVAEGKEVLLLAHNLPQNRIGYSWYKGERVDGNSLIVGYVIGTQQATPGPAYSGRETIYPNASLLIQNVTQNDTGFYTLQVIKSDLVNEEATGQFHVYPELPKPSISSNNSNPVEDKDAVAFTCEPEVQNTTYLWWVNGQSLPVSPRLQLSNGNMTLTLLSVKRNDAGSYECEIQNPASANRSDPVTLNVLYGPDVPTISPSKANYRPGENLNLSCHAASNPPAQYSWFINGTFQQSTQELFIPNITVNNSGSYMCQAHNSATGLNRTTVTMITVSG
From the text: as §1

[5] = target: T1, recombinant human PLVAP51-442 protein …; assay: competition ELISA on coated recombinant PLVAP; competitor biotinylated murine KFCC-GY5 at 0.1 µg/ml
Protocol: The binding of chimeric KFCC-GY4 and KFCC-GY5 antibodies to recombinant PLVAP protein was assessed in a competition ELISA. Either a dilution series of chimeric or control antibody from 30 μg/ml to 0.014 μg/m (final concentration) was premixed with a constant concentration of biotinylated murine KFCC-GY4 (0.3 μg/ml, final concentration) or a dilution series of chimeric or control antibody from 10 μg/ml to 0.004 μg/m (final concentration) was premixed with a constant concentration of biotinylated murine KFCC-GY5 (0.1 μg/ml, final concentration) before incubating for 1 hour at room temperature on a Nunc Immuno MaxiSorp 96 well flat bottom microtitre plate (Fisher Catalogue No. DIS-971-030J) precoated with 1 μg/ml recombinant PLVAP protein diluted in PBS. The binding of the biotinylated mAb was determined by detection with streptavidin-HRP and TMB substrate.
Therefore, the correct variable region sequences for the parent murine monoclonal antibodies were identified and cloned.

[6] = target: T4, peptide encompassing amino acids 378 to 404 of human PLVAP, expressed by an E. coli clone of the Novatope … (human); assay: colony blot of Novatope fragment library
T4 peptide: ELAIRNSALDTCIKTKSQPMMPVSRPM
Protocol: PCR was performed using the following thermal cycle: 94° C. for 5 min, followed by 35 cycles of 94° C. for 30 s, 56° C. for 30 s and 72° C. for 60 s. DNA was purified with the Qiaquick PCR purification kit (Qiagen, Surrey, UK) and then used in the construction of a PLVAP Novatope library according to the manufacturer's instructions (Novagen, Merck Biosciences Ltd., Beeston, UK). Briefly, purified PCR product was digested with DNAse I in the presence of Mn²⁺ and fragments between 50-150 base pairs (bp) were gel purified using a gel extraction kit (Qiagen). The DNA fragments were end-filled using T4 DNA polymerase and Tth polymerase to add a single dA residue to each 3′ end and then ligated into the pScreen 1b(+)T-vector (Novagen), which is designed to express small inserts as a carboxy-terminal fusion to the T7 bacterial phage gene 10 capsid protein. The library was transformed into NovaBlue (DE3) cells and plated onto Luria-Bertani (LB) media plates containing carbenicillin (50 μg/ml) and tetracycline (12.5 μg/m). The resulting human PLVAP cDNA library was screened (approximately 10⁴ colonies for each antibody) using the method described in the Novatope manual: Colonies expressing PLVAP fragments were transferred to nitrocellulose filters by contact with the colony for 1 min. Bacterial colonies on the filters were lysed by incubating in a sealed chloroform vapor chamber for 15 min. […]

[7] = target: T1, recombinant human PLVAP51-442 protein …; assay: competition ELISA on coated recombinant PLVAP; competitor biotinylated murine KFCC-GY5
Protocol: The binding of KFCC-GY4 and KFCC-GY5 human antibody variants to recombinant PLVAP was assessed in a competition ELISA. Either a dilution series of variant or control antibody from 30 μg/m to 0.014 μg/m (final concentration) was premixed with a constant concentration of biotinylated murine KFCC-GY4 (0.3 μg/ml, final concentration) or a dilution series of variant or control antibody from 10 μg/m to 0.004 μg/ml (final concentration) was premixed with a constant concentration of biotinylated murine KFCC-GY5 (0.1 μg/ml, final concentration) before incubating for 1 hour at room temperature on a Nunc Immuno MaxiSorp 96 well flat bottom microtitre plate (Fisher Catalogue No. DIS-971-030J) precoated with 1 μg/m recombinant “protein P” diluted in PBS. The binding of the biotinylated mAb was determined by detection with streptavidin-HRP and TMB substrate. After stopping the reaction with 3M HCl, absorbance was measured at 450 nm on a Dynex Technologies MRX TC II plate reader and the binding curves of the test antibodies compared against the mouse reference standard.
Similarly, the four lead variants of IgG4-GY5 and murine KFCC-GY5 antibodies have very similar binding profiles (FIG. 49). All of the lead variants shown are within two-fold of the original murine monoclonal antibody.

B1: KFCC-GY5 monoclonal antibody (murine, hybridoma ATCC PTA-9964) (antibody, mouse IgG1, V domains shown)
VH: QVQLQQPGAELVRPGASVKLSCKASGYTFTSNYINWVKQRPGQGLEWIGNIYPSDGFTNYNQKFKDRATLTVDKSSSTAYMQLSSPTSEDSAVYYCTRNFDVWGAGTTVTVSS
VL: DVVMTQTPLSLPVSLGDQASISCRSSQSLVHSNGNTYLQWYLQKPGQSPKLLIYTVSNRFSGVPDRFSGSGSGPDFTLKISRVEAEDLGVYFCSQSTHVPFTFGSGTKLEIK
notes: also called GY5 mAB; KFCC-GY5 mAb
Kd [1]: 41 nM | Kd [2]: 59.8 nM | koff [2]: 0.000414 s⁻¹ | kon [2]: 6930 M⁻¹ s⁻¹ | binding result [3]: no binding | binding result [4]: no binding | IC50 [5]: 0.49 µg/mL | binding result [6]: binds | IC50 [7]: 0.38 µg/mL | IC50 (ratio compared to GY5 mAb) [7]: 1
